This is an account of results in paper PMC9031227, “Structure-Activity Relationship Investigations of Novel Constrained Chimeric Peptidomimetics of SOCS3 Protein Targeting JAK2” (Pharmaceuticals, 2022).

Where no end group is shown, it is not given here. [ ]: non-standard residue; d: D form. S5 = C=CCCC[C@](C)(N)C(=O)O

The target in this assay is T1, His-tagged Catalytic Domain of JAK2 (residues 826–1132) (UniProt O60674 826-1132, RED-tris-NTA dye bound to the His tag (His-Tag labeling Kit RED-tris-NTA)).
T1 construct: JAK2 (Janus Kinase 2), catalytic domain, residues 826-1132; also called JAK2 catalytic domain; Janus Kinase 2; source: bought: Carna Biosciences
T1 sequence (O60674 826-1132): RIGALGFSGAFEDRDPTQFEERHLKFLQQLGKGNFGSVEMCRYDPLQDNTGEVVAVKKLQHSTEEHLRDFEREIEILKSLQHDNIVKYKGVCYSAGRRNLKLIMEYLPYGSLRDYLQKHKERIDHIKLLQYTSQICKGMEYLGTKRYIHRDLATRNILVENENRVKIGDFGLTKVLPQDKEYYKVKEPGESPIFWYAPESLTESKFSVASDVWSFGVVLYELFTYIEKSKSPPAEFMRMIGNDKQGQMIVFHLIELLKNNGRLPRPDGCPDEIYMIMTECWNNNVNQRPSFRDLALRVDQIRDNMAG
In words: MST; Monolith NT 115; His-tagged JAK2 catalytic domain labelled with RED-tris-NTA kept constant, peptides in increasing concentrations; standard capillaries, 25 °C, 50 mM Tris-HCl, 150 mM NaCl, 0.05% Brij35, 1 mM DTT, 10% glycerol, 15% TFE, pH 7.5; fit by Langmuir binding isotherm. Particulars: both partners purified.

The Kd is the free concentration of one partner at which half of the binding sites on the other are occupied at equilibrium, for simple one-to-one binding. A higher Kd goes with weaker binding.

For FSSKSEYQL[S5]FYWS[S5]VTG-OH (not fully specified; bridges not given here) [linear version of KIRCONG i/i+5 peptide], binding was put at a Kd of 8 µM.
